The values below come from patent US20240190946A1 (AUGMENTA BIOWORKS, published 2024).

What is called Kd is a measure of binding affinity in units of concentration. A lower Kd goes with tighter binding.

Assay [1] concerns the target T1, Sino CoV2 S2 (spike protein 2) (SARS-COV-2, UniProt P0DTC2 686-1213).
T1 construct: domain: S2 (spike protein 2)
As to the kind of experiment: Carterra LSA; Carterra LSA.

Assay [2] has as its target T2, Sino CoV2 RBD (Receptor Binding Domain) (SARS-COV-2, UniProt P0DTC2 319-541). As to the kind of experiment: Carterra LSA; Carterra LSA.
Assay [3] concerns the target T2, Sino CoV2 RBD (Receptor Binding Domain). As to the kind of experiment: ForteBio; ForteBio. A general note: In BLI a coated tip is dipped into the sample, and binding shifts an interference pattern.
Assay [4] concerns the target SARS-COV-2 spike (1+2) protein on pseudotyped lentivirus (SARS-COV-2, UniProt P0DTC2 14-1273). Kind of assay: cell-based or functional assay.
In assay [5] the target is T1, Sino CoV2 S2 (spike protein 2). As to the kind of experiment: Carterra LSA.
In assay [6] the target is T2, Sino CoV2 RBD (Receptor Binding Domain). As to the kind of experiment: instrument not stated.
In assay [7] the target is T3, NAC CoV2 S1 (SARS-COV-2, UniProt P0DTC2 14-674).
T3 construct: domain: S1
Kind of assay: instrument not stated.

For assay [8], the target named is T1, Sino CoV2 S2 (spike protein 2). As to the kind of experiment: ForteBio; ForteBio.
For assay [9], the target named is T2, Sino CoV2 RBD (Receptor Binding Domain). Kind of assay: Carterra LSA.
Assay [10] concerns the target T4, Sino SARS1 S1 (SARS1, UniProt P59594 14-667).
T4 construct: domain: S1
As to the kind of experiment: Carterra LSA.

B1: anti-SARS-COV-2 (SC2) antibody 3417 (antibody, V domains shown)
VH: QVQLQESGPGLLKPSQTLSLTCTVSGVSIRNSNYFWNWIRRPAGKGLEWIGRMHSGGTTNYNPSLKSRVTVSSDAARNQFSLELTSVTAADTAVYYCARDDPLNRFAAFQIWGRGTLVTVSS
VL: QSVLTQPPSVSAAPGQKVTISCSGSSSNIGNKYISWYQQLPGTAPKLLIYDNNKRPSGIPDRFSGSKSGTSATLGITGLQTGDEADYYCGTWDSSLSVFYVFGTGTKVTVLG
notes: also called SC2 Ab 3417
Take B1: the Kd was 63 nM in assay [1], 7.2 nM in assay [2] and below 0.001 nM in assay [3]. Moreover, the “neutralization of infection of HEK293 cells by spike-pseudotyped lentivirus” value (“neutralization” for short) in [4] was around 70%.

B2: SC2 antibody 3387 (antibody, V domains shown)
VH: QVQLVQSGAEVMQVGASVKVSCKASGYTFTSYGISWVRQAPGQGLEWMGWINTYNGNTNYAQKLQGRVTMTTDTSTTTAYMELRSLRSDDTAVYYCARVAVGYCSGGSCYYFDYWGQGTLVTVSS
VL: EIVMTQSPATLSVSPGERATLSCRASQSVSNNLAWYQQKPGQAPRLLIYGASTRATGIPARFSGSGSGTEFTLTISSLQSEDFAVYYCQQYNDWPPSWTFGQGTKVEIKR
On to B2, for which the “neutralization” value in assay [4] is around 45%.

B3: SC2 antibody 3947 (antibody, V domains shown)
VH: QLQLQESGSGLVKPSQTLSLTCAVSGGSVSSGGYSWSWIRQPPGKGLEWIGYIYDSGITSYNPSLKSRLTISIDRSKNQFSLGLSSVTAADTAVYYCARVRRNTSGSFSTGHFDYWGQGTLVTVSS
VL: QSVLTQPPSVSASPGQTVTISCSGSTSNIGGNYVSWYQHLPGTAPKLLIYDSNKRPSGIPDRFSGSKSGTSATLGITGLQTEDEADYYCGTWDYRLSGAVFGGGTKLTVL
notes: also called Anti-SARS-COV-2 antibody 3947
On to B3, for which binding in [5] was characterised by a dissociation constant (Kd) of 25 nM.

B4: SC2 antibody 4083 (antibody, V domains shown)
VH: QLQLQESGSGLVKPSQTLSLTCAVSGGSVSSGGYSWSWIRQPPGKGLEWIGYIYDSGITSYNPSLKSRLTISIDRSKNQFSLGLSSVTAADTAVYYCARVRRNTSGSFSTGHFDYWGQGTLVTVSS
VL: QSVLTQPPSVSAVPGQKVTISCSGNNSNIGNNLVSWYQQLPGTAPKLLIYNNNRRPSGIPDRFSGSKSGTSATLGITGLQTGDEAAYYCAARDSSLSAVVFGGGTKLTVL
notes: also called Anti-SARS-COV-2 antibody 4083
On to B4, for which, in assay [5], binding was characterised by a dissociation constant (Kd) of 41 nM.

B5: SC2 antibody 3705 (scFv)
scFv: LEIVMTQSPATLSVSPGERATLSCRASQSVSNNLAWYQQKPGQAPRLLIYGASTRATGIPARFSGSGSGTEFTLTISSLQSEDFAVYYCQQYNDWPPSWTFGQGTKVEIKGGGGSGGGGSGGGGSQVQLVQSGAEVMQVGASVKVSCKASGYTFTSYGISWVRQAPGQGLEWMGWINTYNGNTNYAQKLQGRVTMTTDTSTTTAYMELRSLRSDDTAVYYCARVAVGYCSGGSCYYFDYWGQGTLVTVSSGGGGSGGQHHHHHHGAEQKLISEEDLGSGKPIPNPLLGLDSTS
notes: also called Anti-SARS-COV-2 antibody 3705
Regarding B5, the Kd is 1.3 nM in assay [6] and 57 nM in assay [7]. In addition, in [4], the “neutralization” value turned out to be 100%.

B6: SC2 antibody 3396 (antibody, V domains shown)
VH: GVQLVESGGGLVQPGRSLRVSCAASGFTFADYAMHWVRQAPGKGLEWVSGISWNSGNIAYADSVKGRFTISRDNAKNSLYLQMDSLRPDDTALYYCVKASTLYYYFYMDVWGKGTTVTVSS
VL: QSALTQPPSASGSPGQSVTISCTGTSSDVGGYDYVSWYQQHPGKAPKFMIYEVSKRPSGVPDRFSGSKSGNTASLTVSGLQAEDEADYYCCSYAGSNNYVFGTGTKVTVLG
notes: also called Anti-SARS-COV-2 antibody 3396
Regarding B6, the Kd in assay [8] was 122 nM; in assay [3], 22 nM. Also, in assay [4], the “neutralization” value is around 50%.

B7: SC2 antibody 3908 (antibody, V domains shown)
VH: EVQLVESRGGLVQPGGSLRLSCAATGFTLSSFDMHWVRQATGKGLEWVSAIGTAGDTYYPGSVKGRFTISRENAKNSLYLQMNSLRAGDTAVYYCARGTWLRDYNFWSGYNYYFDYWGQGTLVTVSS
VL: QSALTQPPSASGSPGQSVTISCTGTSSDVGGYIYVSWYQQHPGKAPKLIIYEVSKRPSGVPDRFSGSKSGNTASLTVSGLQAEDEADYYCSSYADSNNYVFGSGTRVTVLG
notes: also called Anti-SARS-COV-2 antibody 3908
B7 gave a Kd in assay [8] of 74 nM.

B8: SC2 antibody 3969 (antibody, V domains shown)
VH: QVQLVESGGGVVQPGRSLRLSCAASGFTFSSYGMHWVRQAPGKGLEWVAVISYDGSNKYYADSVKGRFTISRDNSKNTLYLQMNSLRAEDTAVYYCAKGVGDYAVWGQGTLVTVSS
VL: QSALTQPASVSGSPGQSITISCTGTNSDIGGYDYVSWYQQHPGKAPKLMIFDVNNRPSGVSNRFSGSKSGNTASLTISELQSADEADYFCSSFSTRNSLVVFGGGTKLTVL
notes: also called Anti-SARS-COV-2 antibody 3969
In the case of B8, the Kd in assay [9] came out at 105 nM; in assay [10] it was 28 nM.

B9: SC2 antibody 3388 (antibody, V domains shown)
VH: QVQLVESGGGVVQPGRSLRLSCAASGFTFSSYAMHWVRQAPGKGLEWVAVISYDGSNKYYADSVKGRFTISRDNSKNTLYLQMNSLRAEDTAVYYCAREGNIVATISLDYWGQGTLVTVSS
VL: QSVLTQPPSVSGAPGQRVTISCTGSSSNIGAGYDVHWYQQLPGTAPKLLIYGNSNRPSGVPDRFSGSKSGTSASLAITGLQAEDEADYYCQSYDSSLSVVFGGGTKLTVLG
notes: also called Anti-SARS-COV-2 antibody 3388
B9 registered a Kd in assay [1] of 10 nM. That is a double-digit nanomolar value.
